The values that follow come from patent US5218092A, “Modified granulocyte-colony stimulating factor polypeptide with added carbohydrate chains” (Kyowa Hakko Kogyo Co., Ltd., priority 1988, dated 1993).

For series [1] the following is noted: cited from earlier work; for site of clearance: sialic acid-containing or after sialic acid elimination.
In a further series the test system is fibrin. The note with it: cited from earlier work.
A further series has as its system plasminogen in blood. The note with it: in vivo; cited from earlier work.
In another series the test system is plasmin. The note with it: cited from earlier work.
The conditions of series [2]: no carbohydrate chain; cited from earlier work.
The conditions of series [3]: no carbohydrate chain; cited from earlier work. The source holds these as a separate data set.
The subject of a further series is thrombin. The note with it: cited from earlier work.
In another series the test system is chymotrypsin. Nature of the series: proteolysis susceptibility of hG-CSF and hG-CSF[ND28] produced in Escherichia coli. In kind it is in vitro ADME. An excerpt:
Analysis of hG-CSF and the hG-CSF derivative hG-CSF[ND 28] […] On the basis of the above findings, it is estimated that, in hG-CSF[ND28], a portion close to the N terminus and a portion in the vicinity of the 144th (from the N terminus) amino acid are found on the polypeptide surface. Therefore, an attempt was made to add a carbohydrate chain to hG-CSF[ND28] on the 6th or 145th (from the N terminus) amino acid residue thereof. An hG-CSF[ND28] derivative which has a carbohydrate chain addition site on the 6th (from the N terminus) amino acid residue is hG-CSF[ND28N6] and a derivative which has a carbohydrate chain addition site on the 145th (from the N terminus) amino acid residue is hG-CSF[ND28N145]. In these cases, it is expected that the carbohydrate chain addition can result in development of protease resistance. Retardation of blood clearance can also be expected as a result of stabilization of the polypeptide.

The conditions of series [4]: rat plasma and rat perfusate; cited from earlier work.

Turning to “hGM-CSF: human granulocyte macrophage colony stimulating factor (hGM-CSF)”, the “rate of clearance from the rat plasma” value in [1] (dependence on number of carbohydrate chains) is reported as “the rate of clearance from the rat plasma increases in proportion to the reduction in the number of carbohydrate chains”.
With “hGM-CSF after sialic acid elimination: hGM-CSF after sialic acid elimination”, in series [1] (after sialic acid elimination), the rate of clearance result is “increased rate of clearance”. Also, the site of clearance entry in series [1] was “undergoes clearance in the liver”.
streptokinase: thrombolytic agent: the affinity for fibrin entry in the series with fibrin is recorded as “no affinity for fibrin”. Moreover, the “systemic hyperfibrinolysis / bleeding tendency” value in the series with plasminogen in blood was “causing systemic hyperfibrinolysis and leading to a bleeding tendency”.
For the molecule “t-PA: tissue plasminogen activator (t-PA)”, in the series on plasmin, the “conversion under the action of plasmin” value is on record as “Plasmin converts the single-chainform to the double-chain form”. Also, the affinity for fibrin entry with fibrin is “have affinity for fibrin”.
Take “sialic acid-containing hGM-CSF: sialic acid-containing hGM-CSF”: the site of clearance result in series [1] is “undergoes clearance in the kidney”.
As to “human erythropoietin: human erythropoietin produced in Escherichia coli or enzymatically treated for carbohydrate chain elimination”, the activity in vitro result in series [2] is “shows activity in vitro”. Besides, in [3], the activity in vivo result is listed as “shows decreased activity in vivo” and the clearance result is “undergoes rapid clearance”.
In the case of Urokinase, the affinity for fibrin entry with fibrin is “no affinity for fibrin”. Further, the “systemic hyperfibrinolysis / bleeding tendency” value with plasminogen in blood was “causing systemic hyperfibrinolysis and leading to a bleeding tendency”. The “conversion under the action of thrombin” value with thrombin is “converted to an inactive form upon exposure to a protease called thrombin”.

B1: hG-CSF: human granulocyte colony stimulating factor (hG-CSF) (protein, UniProt P09919 31-207, looked up)
Granulocyte …: TPLGPASSLPQSFLLKCLEQVRKIQGDGAALQEKLVSECATYKLCHPEELVLLGHSLGIPWAPLSSCPSQALQLAGCLSQLHSGLFLYQGLLQALEGISPELGPTLDTLQLDVADFATTIWQQMEELGMAPALQPTQGAMPAFASAFQRRAGGVLVASHLQSFLEVSYRVLRHLAQP
Take B1: the “susceptibility to proteolysis by chymotrypsin behind 144th amino acid Phe” value with chymotrypsin is “susceptible to proteolysis by chymotrypsin”.

B2: α1 -acid glycoproteins: α1 -acid glycoproteins differing in carbohydrate structure as biosynthesized in a rat liver primary culture system (protein, UniProt P02764 19-205, looked up)
Alpha-1-acid glycoprotein: QNPEPANITLGIPITNETLKWLSDKWFYMGAAFRDPVFKQAVQTIQTEYFYLTPNLINDTIELREFQTTDDQCVYNFTHLGVQRENGTLSKCAGAVKIFAHLIVLKKHGTFMLAFNLTDENRGLSFYAKKPDLSPELRKIFQQAVKDVGMDESEIVFVDWTKDKCSEQQKQQLELEKETKKETKKDP
modifications: glycoform mixture
notes: α1 -acid glycoproteins differing in carbohydrate structure as biosynthesized in a rat liver primary culture system
In the case of B2, the “order of clearance rates” value in series [4] was “high mannose type>carbohydrate chain-deficient type>hybrid type>complex type (natural form)”.
